Source: patent US20070224178A1 (Sanofi, published 2007)

T1: Vascular endothelial growth factor (VEGF) (Homo sapiens (Human), UniProt P15692 181-395)
T1 construct: also called VEGF165; VEGF A
T1 sequence: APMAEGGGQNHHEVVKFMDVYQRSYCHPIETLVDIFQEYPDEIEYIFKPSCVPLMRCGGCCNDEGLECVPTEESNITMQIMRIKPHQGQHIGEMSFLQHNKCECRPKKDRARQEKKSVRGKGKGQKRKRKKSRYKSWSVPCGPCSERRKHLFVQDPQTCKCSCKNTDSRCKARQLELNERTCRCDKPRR

B1: D2-9Gly-CH3 (other)
chain: PFVEMYSEIPEIIHMTEGRELVIPCRVTSPNITVTLKKFPLDTLIPDGKRIIWDSRKGFIISNATYKEIGLLTCEATVNGHLYKTNYLTHRQTGGGGGGGGGGQPREPQVYTLPPSREEMTKNQVSLTCLVKGFYPSDIAVEWESNGQPENNYKTTPPVLDSDGSFFLYSKLTVDKSRWQQGNVFSCSVMHEALHNHYTQKSLSLSPGK
notes: domain: Flt-1 domain 2; Conditioned medium of transfected 293 cells
B2: D2-9Gly-Ex3/CH3 (other)
chain: PFVEMYSEIPEIIHMTEGRELVIPCRVTSPNITVTLKKFPLDTLIPDGKRIIWDSRKGFIISNATYKEIGLLTCEATVNGHLYKTNYLTHRQTGGGGGGGGGPSCVPLMRCGGCCNGQPREPQVYTLPPSREEMTKNQVSLTCLVKGFYPSDIAVEWESNGQPENNYKTTPPVLDSDGSFFLYSKLTVDKSRWQQGNVFSCSVMHEALHNHYTQKSLSLSPGK
notes: as for B1
B3: D(1-3) (receptor, human (by the accession given in p-0034), UniProt P17948 27-328, looked up)
soluble receptor fragment: SKLKDPELSLKGTQHIMQAGQTLHLQCRGEAAHKWSLPEMVSKESERLSITKSACGRNGKQFCSTLTLNTAQANHTGFYSCKYLAVPTSKKKETESAIYIFISDTGRPFVEMYSEIPEIIHMTEGRELVIPCRVTSPNITVTLKKFPLDTLIPDGKRIIWDSRKGFIISNATYKEIGLLTCEATVNGHLYKTNYLTHRQTNTIIDVQISTPRPVKLLRGHTLVLNCTATTPLNTRVQMTWSYPDEKNKRASVRRRIDQSNSHANIFYSVLTIDKMQNKDKGLYTCRVRSGPSFKSVNTSVHI
notes: soluble fragment, Ig-like domains 1-3; made in conditioned medium of 293 cells; also called Flt-1 D(1-3) control soluble receptor

How the values were obtained:
[1] = molecular target: Vascular endothelial growth factor (VEGF) (Homo sapiens (Human)) (UniProt P15692); assay: surface plasmon resonance (BIAcore), sFlt-1 construct immobilized on the chip, VEGF165 injected at 0.2 to 15 nM; column Ka
[2] = molecular target: Vascular endothelial growth factor (VEGF) (Homo sapiens (Human)) (UniProt P15692); assay: surface plasmon resonance (BIAcore), sFlt-1 construct immobilized on the chip, VEGF165 injected at 0.2 to 15 nM; column Kd
[3] = molecular target: Vascular endothelial growth factor (VEGF) (Homo sapiens (Human)) (UniProt P15692); assay: surface plasmon resonance (BIAcore), sFlt-1 construct immobilized on the chip, VEGF165 injected at 0.2 to 15 nM; the column head prints KD (nM), but the printed Kd/Ka (1.22e-3 / 2.71e6) gives about 4.5e-10 M
[4] = molecular target: T1, Vascular endothelial growth factor …; assay: solution binding assay: serially diluted conditioned medium with soluble receptor mixed with 10 pM VEGF, unbound VEGF measured by ELISA
Method: FIG. 11. VEGF “in vitro” binding assay. Conditioned media from 293 cells containing known concentrations of both D2-9Gly-Fc and Flt-1 D(1-3) control soluble receptors (ranging in concentrations from 0.29-150 pM) were serially diluted and mixed with 10 pM VEGF. The amount of unbound VEGF was then measured by ELISA. D2-9Gly-Fc binds VEGF with higher affinity than all other constructs. “n” represents the number of independent experiments (transfection and binding assay).
Briefly, conditioned media containing known concentrations of soluble receptor (ranging in concentrations from 0.29-150 pM) were serially diluted and mixed with 10 pM VEGF. The amount of unbound VEGF was then measured by ELISA. […] D2-CH3 has the lowest affinity to bind VEGF (FIG. 11).

| Molecule | kon [1] | koff [2] | Kd [3] | IC50 (read off the curve) [4] |
| --- | --- | --- | --- | --- |
| rFlt-1(Fc)(R&D) (from UniProt P17948-2) (Fc fusion) | 2.71e+06 M⁻¹ s⁻¹ | 0.00122 s⁻¹ | 448 pM | – |
| B1 | – | – | – | ~0.5 pM |
| B2 | – | – | – | ~0.9 pM |
| B3 | – | – | – | ~1 pM |
